Laboratory results taken from paper PMC8152229.

Experiments:
[1] = target: F-actin from rabbit skeletal muscle, stabilised by phalloidin (rabbit) (UniProt P68135); assay: temperature dependence of light scattering; 20 uM F-actin stabilized by 20 uM phalloidin and 10 uM Tpm; 30 mM Hepes-Na pH 7.3, 100 mM NaCl, 2 mM DTT; heating 1 °C/min; light scattering at 90 degrees, 350 nm; T_diss = temperature of 50% decrease
[2] = target: F-actin from rabbit skeletal muscle, stabilised by phalloidin (rabbit) (UniProt P68135); assay: co-sedimentation; 10 uM phalloidin-stabilized F-actin mixed with increasing Tpm (0 to 5.5-6 uM; up to almost 40 uM for Tpm1.12); 30 mM Hepes-Na pH 7.3, 200 mM NaCl; 40 min at 25 °C; 100,000 x g for 40 min; SDS-PAGE of pellet and supernatant; K50% = Tpm concentration at which actin is half-saturated
[3] = viscosity (falling ball micro viscometer); Tpm alone at 1.0 or 2.0 mg/mL; 30 mM Hepes-Na pH 7.3, 100 mM NaCl, 2 mM DTT; 20 °C; excess viscosity over buffer (1.0412 mPa∙s) as measure of head-to-tail interaction between Tpm dimers; conditions: other: viscosity (falling ball micro viscometer)
[4] = tested on: P09493; assay: as above; conditions: other: viscosity (falling ball micro viscometer)

Sequence of Tropomyosin isoform Tpm1.7 with Ala-Ser N-terminal extension (chain, as listed by the source): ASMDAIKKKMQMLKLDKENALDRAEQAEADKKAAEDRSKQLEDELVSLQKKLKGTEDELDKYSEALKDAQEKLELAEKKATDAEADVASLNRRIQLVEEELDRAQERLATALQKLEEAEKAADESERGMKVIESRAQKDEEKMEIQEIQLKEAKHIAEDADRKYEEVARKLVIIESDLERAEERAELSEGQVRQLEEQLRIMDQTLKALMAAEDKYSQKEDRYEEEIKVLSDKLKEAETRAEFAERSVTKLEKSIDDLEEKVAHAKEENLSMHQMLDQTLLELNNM
Sequence of Tropomyosin isoform Tpm1.12 (chain, as listed by the source): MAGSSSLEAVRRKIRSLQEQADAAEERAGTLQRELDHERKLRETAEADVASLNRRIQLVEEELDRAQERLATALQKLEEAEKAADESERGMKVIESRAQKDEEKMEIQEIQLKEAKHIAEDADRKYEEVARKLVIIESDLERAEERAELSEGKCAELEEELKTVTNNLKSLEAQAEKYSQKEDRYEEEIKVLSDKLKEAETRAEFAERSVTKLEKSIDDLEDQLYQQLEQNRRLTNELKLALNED

T diss [1] [°C] | K50% [2] [µM] | Substance | excess viscosity at 1 mg/mL [3] [mPa∙s] | excess viscosity at 2 mg/mL [3] [mPa∙s] | excess viscosity at 1 mg/mL [4] [mPa∙s] | excess viscosity at 2 mg/mL [4] [mPa∙s]
41.4 | 0.45 | Tropomyosin isoform Tpm1.6 with Ala-Ser N-terminal extension (natural protein) |  |  |  | 
 |  | Tropomyosin isoform Tpm1.6 with Ala-Ser N-terminal extension | 0.474 | 1.34 |  | 
 |  | Tropomyosin isoform Tpm1.7 with Ala-Ser N-terminal extension |  |  | 1.03 | 3.58
 |  | Tropomyosin isoform Tpm1.12 |  |  | 0.026 | 0.066
48.9 | 1.11 | Tropomyosin isoform Tpm1.5 with Ala-Ser N-terminal extension (natural protein) |  |  |  | 
 |  | Tropomyosin isoform Tpm1.5 with Ala-Ser N-terminal extension | 0.179 | 0.653 |  | 
